# Measured values reported in article PMC2425480 (Nucleic Acids Research, 2008).
# B1: Sulfolobus solfataricus MCM protein N-terminal domain (residues 1–268) (domain or fragment, UniProt Q9UXG1 1-268, looked up)
# chain: MEIPSKQIDYRDVFIEFLTTFKGNNNQNKYIERINELVAYRKKSLIIEFSDVLSFNENLAYEIINNTKIILPILEGALYDHILQLDPTYQRDIEKVHVRIVGIPRVIELRKIRSTDIGKLITIDGILVKVTPVKERIYKATYKHIHPDCMQEFEWPEDEEMPEVLEMPTICPKCGKPGQFRLIPEKTKLIDWQKAVIQERPEEVPSGQLPRQLEIILEDDLVDSARPGDRVKVTGILDIKQDSPVKRGSRAVFDIYMKVSSIEVSQKV
# Target: the molecule itself
# Experiment: crystal structure
protein,measurement,value
B1,stoichiometry N,6
